The values below come from US20180263964A1 (MINERVA BIOTECHNOLOGIES, published 2018).

Assay [1] addresses T1, full-length MUC1 (human, UniProt P15941 24-1255, limits assumed).
T1 construct: also called full-length MUC1 Receptor; Mucin 1 precursor
Description: co-immunoprecipitation with Ab5 from human iPS and HES cell lysates, Western blot for NME7. In general terms: A western blot detects proteins with antibodies after separation by electrophoresis.

The target of assay [2] is T1, full-length MUC1. Description: co-immunoprecipitation gel stripped and re-probed with an anti-MUC1* (PSMGFR) antibody.

T1 sequence (P15941 other isoform, or with tags, fused parts or gaps limits assumed): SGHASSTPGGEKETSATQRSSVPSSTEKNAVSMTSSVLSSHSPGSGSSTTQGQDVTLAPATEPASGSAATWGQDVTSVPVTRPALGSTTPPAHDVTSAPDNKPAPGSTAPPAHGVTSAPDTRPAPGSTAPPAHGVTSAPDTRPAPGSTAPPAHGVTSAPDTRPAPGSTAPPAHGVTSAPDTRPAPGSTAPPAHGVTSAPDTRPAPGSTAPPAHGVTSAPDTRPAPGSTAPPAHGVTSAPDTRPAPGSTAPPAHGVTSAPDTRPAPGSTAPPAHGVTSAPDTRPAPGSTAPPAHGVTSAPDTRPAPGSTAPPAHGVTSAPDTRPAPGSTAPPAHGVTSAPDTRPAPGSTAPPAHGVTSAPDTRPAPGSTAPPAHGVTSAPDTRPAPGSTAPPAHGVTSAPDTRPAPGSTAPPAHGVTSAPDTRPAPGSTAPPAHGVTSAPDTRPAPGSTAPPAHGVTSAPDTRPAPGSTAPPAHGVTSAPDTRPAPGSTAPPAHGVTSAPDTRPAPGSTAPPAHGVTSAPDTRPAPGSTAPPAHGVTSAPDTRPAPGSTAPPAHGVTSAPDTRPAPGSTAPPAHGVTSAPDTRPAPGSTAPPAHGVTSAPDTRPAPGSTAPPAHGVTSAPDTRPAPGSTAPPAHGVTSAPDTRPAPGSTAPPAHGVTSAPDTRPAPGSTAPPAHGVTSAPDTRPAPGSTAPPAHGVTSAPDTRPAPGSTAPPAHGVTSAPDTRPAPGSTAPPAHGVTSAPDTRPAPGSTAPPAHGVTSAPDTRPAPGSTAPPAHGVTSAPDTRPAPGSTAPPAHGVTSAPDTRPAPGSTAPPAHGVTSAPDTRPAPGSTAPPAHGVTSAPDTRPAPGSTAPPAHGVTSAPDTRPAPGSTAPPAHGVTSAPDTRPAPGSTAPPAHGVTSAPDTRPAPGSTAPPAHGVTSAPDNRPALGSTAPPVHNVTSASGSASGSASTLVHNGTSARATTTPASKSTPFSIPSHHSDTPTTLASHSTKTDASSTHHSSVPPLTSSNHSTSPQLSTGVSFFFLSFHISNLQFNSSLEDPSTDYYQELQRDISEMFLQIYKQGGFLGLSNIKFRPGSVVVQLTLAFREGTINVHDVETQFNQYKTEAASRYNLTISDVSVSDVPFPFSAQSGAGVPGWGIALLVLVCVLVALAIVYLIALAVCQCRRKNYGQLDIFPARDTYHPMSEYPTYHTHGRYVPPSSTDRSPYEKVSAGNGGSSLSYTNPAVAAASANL

B1: full-length NME7, 42 kDa (other, UniProt Q9Y5B8 1-376, looked up)
chain: MNHSERFVFIAEWYDPNASLLRRYELLFYPGDGSVEMHDVKNHRTFLKRTKYDNLHLEDLFIGNKVNVFSRQLVLIDYGDQYTARQLGSRKEKTLALIKPDAISKAGEIIEIINKAGFTITKLKMMMLSRKEALDFHVDHQSRPFFNELIQFITTGPIIAMEILRDDAICEWKRLLGPANSGVARTDASESIRALFGTDGIRNAAHGPDSFASAAREMELFFPSSGGCGPANTAKFTNCTCCIVKPHAVSEGLLGKILMAIRDAGFEISAMQMFNMDRVNVEEFYEVYKGVVTEYHDMVTEMYSGPCVAMEIQQNNATKTFREFCGPADPEIARHLRPGTLRAIFGKTKIQNAVHCTDLPEDGLLEVQYFFKILDN
notes: Endogenous 42 kDa protein in cell lysates; also called native NME7
Turning to B1, in the assay with full-length MUC1 [1], the binding result was “no binding”.

B2: NME7AB (ligand)
chain: MEKTLALIKPDAISKAGEIIEIINKAGFTITKLKMMMLSRKEALDFHVDHQSRPFFNELIQFITTGPIIAMEILRDDAICEWKRLLGPANSGVARTDASESIRALFGTDGIRNAAHGPDSFASAAREMELFFPSSGGCGPANTAKFTNCTCCIVKPHAVSEGLLGKILMAIRDAGFEISAMQMFNMDRVNVEEFYEVYKGVVTEYHDMVTEMYSGPCVAMEIQQNNATKTFREFCGPADPEIARHLRPGTLRAIFGKTKIQNAVHCTDLPEDGLLEVQYFFKILDN
notes: In the co-immunoprecipitations and Western blots this is the endogenous 33 kDa species of cell lysates; also called human NME7-AB; 33 kDa NME7-reactive species
B2: in the assay with full-length MUC1 [2], the binding result is on record as “no binding”.

B3: NME7-X1 (ligand)
chain: MMMLSRKEALDFHVDHQSRPFFNELIQFITTGPIIAMEILRDDAICEWKRLLGPANSGVARTDASESIRALFGTDGIRNAAHGPDSFASAAREMELFFPSSGGCGPANTAKFTNCTCCIVKPHAVSEGLLGKILMAIRDAGFEISAMQMFNMDRVNVEEFYEVYKGVVTEYHDMVTEMYSGPCVAMEIQQNNATKTFREFCGPADPEIARHLRPGTLRAIFGKTKIQNAVHCTDLPEDGLLEVQYFFKILDN
notes: Alternative splice isoform of NME7; In the blots it is the endogenous 30 kDa species of cell lysates; also called human NME7-X1; 30 kDa NME7-reactive species
Take B3: in the assay with full-length MUC1 [2], the binding result was “no binding”.
